Target: Rpa1 (yeast), the large subunit of the replication protein A (RPA) complex (S. cerevisiae (endogenous in yeast …, UniProt P22336 1-621))
Experiment: cell-based or functional assay

Rpa1 (yeast), the large subunit of the replication protein A (RPA) complex (S. cerevisiae, sequence (P22336 whole entry, one chain of several): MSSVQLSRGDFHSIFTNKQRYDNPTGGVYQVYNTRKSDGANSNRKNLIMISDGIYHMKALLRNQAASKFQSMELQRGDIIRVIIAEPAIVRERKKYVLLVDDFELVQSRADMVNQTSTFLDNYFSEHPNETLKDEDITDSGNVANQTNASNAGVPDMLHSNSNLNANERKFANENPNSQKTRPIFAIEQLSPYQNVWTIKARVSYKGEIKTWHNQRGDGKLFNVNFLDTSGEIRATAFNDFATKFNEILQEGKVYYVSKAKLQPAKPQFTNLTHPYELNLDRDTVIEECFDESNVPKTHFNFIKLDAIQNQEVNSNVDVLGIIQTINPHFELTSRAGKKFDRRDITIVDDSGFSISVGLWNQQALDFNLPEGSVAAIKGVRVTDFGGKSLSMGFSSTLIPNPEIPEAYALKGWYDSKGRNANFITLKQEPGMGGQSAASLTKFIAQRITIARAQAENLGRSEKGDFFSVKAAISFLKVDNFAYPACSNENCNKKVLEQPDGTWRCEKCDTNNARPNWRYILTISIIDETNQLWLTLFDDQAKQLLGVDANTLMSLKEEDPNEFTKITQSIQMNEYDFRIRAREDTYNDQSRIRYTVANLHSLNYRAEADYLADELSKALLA

B1: His-Rad1 (natural protein, S. cerevisiae, UniProt P06777 1-1100, looked up)
chain: MSQLFYQGDSDDELQEELTRQTTQASQSSKIKNEDEPDDSNHLNEVENEDSKVLDDDAVLYPLIPNEPDDIETSKPNINDIRPVDIQLTLPLPFQQKVVENSLITEDALIIMGKGLGLLDIVANLLHVLATPTSINGQLKRALVLVLNAKPIDNVRIKEALEELSWFSNTGKDDDDTAVESDDELFERPFNVVTADSLSIEKRRKLYISGGILSITSRILIVDLLSGIVHPNRVTGMLVLNADSLRHNSNESFILEIYRSKNTWGFIKAFSEAPETFVMEFSPLRTKMKELRLKNVLLWPRFRVEVSSCLNATNKTSHNKVIEVKVSLTNSMSQIQFGLMECLKKCIAELSRKNPELALDWWNMENVLDINFIRSIDSVMVPNWHRISYESKQLVKDIRFLRHLLKMLVTSDAVDFFGEIQLSLDANKPSVSRKYSESPWLLVDEAQLVISYAKKRIFYKNEYTLEENPKWEQLIHILHDISHERMTNHLQGPTLVACSDNLTCLELAKVLNASNKKRGVRQVLLNKLKWYRKQREETKKLVKEVQSQDTFPENATLNVSSTFSKEQVTTKRRRTRGASQVAAVEKLRNAGTNVDMEVVFEDHKLSEEIKKGSGDDLDDGQEENAANDSKIFEIQEQENEILIDDGDAEFDNGELEYVGDLPQHITTHFNKDLWAEHCNEYEYVDRQDEILISTFKSLNDNCSLQEMMPSYIIMFEPDISFIRQIEVYKAIVKDLQPKVYFMYYGESIEEQSHLTAIKREKDAFTKLIRENANLSHHFETNEDLSHYKNLAERKLKLSKLRKSNTRNAGGQQGFHNLTQDVVIVDTREFNASLPGLLYRYGIRVIPCMLTVGDYVITPDICLERKSISDLIGSLQNNRLANQCKKMLKYYAYPTLLIEFDEGQSFSLEPFSERRNYKNKDISTVHPISSKLSQDEIQLKLAKLVLRFPTLKIIWSSSPLQTVNIILELKLGREQPDPSNAVILGTNKVRSDFNSTAKGLKDGDNESKFKRLLNVPGVSKIDYFNLRKKIKSFNKLQKLSWNEINELINDEDLTDRIYYFLRTEKEEQEQESTDENLESPGKTTDDNALHDHHNDVPEAPV
  3′ flap cleavage by purified His-Rad1–Rad10 (200 nM) in the presence of purified yeast RPA (80 nM), in vitro endonuclease assay: ~2 fold

Source: publication PMC5966407, “Distinct roles of XPF-ERCC1 and Rad1-Rad10-Saw1 in replication-coupled and uncoupled inter-strand crosslink repair” (Nature Communications, 2018)
